Data published in patent publication US20200181258A1.

Molecular target: canine FcRn-β2M complex (canine)
Assay: SPR, antibody captured on Protein L, soluble FcRn 920 and 460 nM, pH 6.0, 25 C

Kd: 150 nM
Substance: YTE-b12 canine IgGB (antibody)
